Results from US20220153790A1 (TECHNISCHE UNIVERSIT T M NCHEN, published 2022).
One block for each binder: values may come before it.

Tests used:
[1] = target: T1, fully glycosylated, monobiotinylated extracellular domain of human CD98hc produced in HEK 293E cells (human, UniProt P08195 111-529, N-linked glycosylation at Asn264, 280, 323 and 405 (UniProt P08195-2); single biotin on the N-terminal BAP); test: not given
T1 construct: also called hCD98hcEDg; CD98hcEDg; not shown: N-terminal His6 tag and biotin acceptor peptide (BAP) from pDSG-BM-His6-BAP-hCD98hcEDg
T1 sequence: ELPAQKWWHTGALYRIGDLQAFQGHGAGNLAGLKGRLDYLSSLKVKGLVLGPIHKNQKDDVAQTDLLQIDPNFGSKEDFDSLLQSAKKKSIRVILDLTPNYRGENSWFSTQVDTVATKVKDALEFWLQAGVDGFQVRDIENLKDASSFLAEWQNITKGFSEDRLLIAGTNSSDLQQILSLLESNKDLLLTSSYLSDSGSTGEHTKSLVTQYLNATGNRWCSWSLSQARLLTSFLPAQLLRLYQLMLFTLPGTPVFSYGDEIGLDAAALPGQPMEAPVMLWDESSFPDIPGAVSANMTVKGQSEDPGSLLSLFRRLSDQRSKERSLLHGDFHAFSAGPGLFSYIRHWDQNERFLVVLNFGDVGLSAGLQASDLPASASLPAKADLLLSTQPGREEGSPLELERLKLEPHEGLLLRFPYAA

[2] = target: T2, unglycosylated, monobiotinylated extracellular domain of human CD98hc produced in E. coli (human, UniProt P08195 111-529, single biotin on the N-terminal biotin acceptor peptide (BAP)); test: SPR, complex dissociation half-life
T2 construct: also called hCD98hcED; CD98hcED; not shown: N-terminal biotin acceptor peptide (BAP) from pASK-IBA5(+)-BAP-hCD98hcED
T2 sequence: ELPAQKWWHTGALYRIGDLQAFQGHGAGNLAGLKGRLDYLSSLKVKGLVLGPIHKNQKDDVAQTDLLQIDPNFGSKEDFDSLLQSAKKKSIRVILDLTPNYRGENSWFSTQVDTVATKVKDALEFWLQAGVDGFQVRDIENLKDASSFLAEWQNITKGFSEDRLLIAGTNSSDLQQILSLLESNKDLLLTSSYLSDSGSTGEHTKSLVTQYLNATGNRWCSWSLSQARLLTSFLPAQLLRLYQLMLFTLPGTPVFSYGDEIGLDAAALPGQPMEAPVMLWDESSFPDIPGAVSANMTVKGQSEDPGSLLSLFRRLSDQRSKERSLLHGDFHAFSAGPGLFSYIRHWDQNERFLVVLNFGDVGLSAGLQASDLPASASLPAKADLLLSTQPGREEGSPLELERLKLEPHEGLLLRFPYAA
Method: (§1) Real time surface plasmon resonance (SPR) spectroscopy was performed on a BIAcore 2000 system (BIAcore, Uppsala, Sweden) at 25° C. using HBS-T (20 mM Hepes/NaOH pH 7.5, 150 mM NaCl, 0.005% v/v Tween20) as running buffer. The purified biotinylated m/hCD98hcED (3 μg/ml protein solution in HBS-T produced in HEK cells or E. coli) was immobilized (ARU-225) via streptavidin on a CAP sensorchip of the Biotin CAPture kit (GE Healthcare). SPR single cycle kinetic experiments were performed using five consecutive injections of a 1:2 dilution series of the purified lipocalin variant at a flow rate of 25 μl/min, with 288 s contact time and 3500 s dissociation time after the fifth injection. For multi cycle kinetic experiments, eight samples from a consecutive 1:2 dilution series of the purified lipocalin variant were measured. Rate constants of association and dissociation were calculated from reference-corrected sensorgrams by fitting to a global 1:1 Langmuir binding model using BIAevaluation software (BIAcore). The equilibrium dissociation constants (KD value) were calculated as the quotient koff/kₒₙ. To test competitive binding of the lipocalin variants P3D11, P3A12 and P1E4 to glycosylated hCD98hcED, 100 nM of P3D11 was first injected and followed by a subsequent injection of either 100 nM P3A12 or 100 nM P1E4. HBS-T injections served as negative control.

[3] = target: T1, fully glycosylated, monobiotinylated …; test: SPR, complex dissociation half-life
Method: as §1

[4] = target: T1, fully glycosylated, monobiotinylated …; test: SPR, biotinylated hCD98hcEDg captured on CAP chip
Method: as §1

[5] = target: T1, fully glycosylated, monobiotinylated …; test: SPR, comparison of glycosylated and unglycosylated ectodomain
Method: as §1

[6] = target: T2, unglycosylated, monobiotinylated …; test: SPR (BIAcore 2000), biotinylated hCD98hcED captured on CAP chip, multiple cycle kinetics
Method: as §1

[7] = target: T2, unglycosylated, monobiotinylated …; test: SPR
Method: as §1

[8] = target: T2, unglycosylated, monobiotinylated …; test: SPR (BIAcore 2000), biotinylated hCD98hcED captured on CAP chip, single cycle kinetics
Method: as §1

[9] = target: T1, fully glycosylated, monobiotinylated …; test: flow cytometry, soluble hCD98hcEDg at 10-fold molar excess as competitor of cell binding
Method: Cells growing in suspension (Ramos, Raji and SU-DHL-4) were directly washed with PBS (w/o Ca²⁺ and Mg²⁺). For each measurement, 250,000 viable cells were resuspended in 250 μl FACS buffer (PBS+10% (v/v) FBS) containing 1 μM D11vs-PAS200-Cy5.5 (cf. Supplementary information) and incubated for 1 h at 4° C. Competition experiments were performed by adding a 10-fold molar concentration of either unlabeled D11vs-PAS200 or the soluble glycosylated hCD98hcED. After incubation, cells were washed three times in PBS and finally resuspended in 250 μl FACS buffer. Flow cytofluorometric experiments were performed on a FACSAria Ilu instrument using an excitation wavelength of 650 nm and an emission band-path filter of 780/60 nm.
As expected, no fluorescence staining for any of the tested cell lines was detected when using the Cy5.5-labeled PASylated wtLcn2.

[10] = target: T2, unglycosylated, monobiotinylated …; test: not given

B1: lipocalin variant P1E4 (designed binder)
chain: QDSTSDLIPAPPLSKVPLQQNFQDNQFHGKWYVVGIAGNSMLREDKDPFKMTATIYELKEDKSYNVTRVRFDDKKCLYRILTFVPGSQPGEFTLGNIKSRPGWTSWLVRVVSTNYNQHAMVFFKRVHQNRETFWITLYGRTKELTSELKENFIRFSKSLGLPENHIVFPVPIDQCIDG
notes: produced soluble in E. coli JM83, monomeric; also called Anticalin P1E4; not shown: C-terminal His6-tag (plasmid pNGAL118)
Kd [1]: ≤ 200 nM
T½ [2]: 0.0183 h
T1/2 [3]: < 0.0167 h
Kd [4]: 162 nM
koff [4]: 0.09 s⁻¹
kon [4]: 560000 M⁻¹ s⁻¹
fold decrease of binding by N-glycosylation (hCD98hcEDg against hCD98hcED) [5]: ~100 fold
Kd [6]: 4.5 nM
koff [6]: 0.011 s⁻¹
kon [6]: 2.5e+06 M⁻¹ s⁻¹

B2: lipocalin variant D11vs (designed binder)
chain: QDSTSDLIPAPPLSKVPLQQNFQDNQFHGKWYVVGRAGNTGLREDKDPGKMFATIYELKEDKSYNVTYVWSGQKKCMYSIVTFVPGSQPGEFTLGNIKSAPGRTSWLVRVVSTNYNQHAMVFFKSVTQNREGFAITLYGRTKELTSELKENFIRFSKSLGLPENHIVFPVPIDQCIDG
notes: P3D11 variant with Phe71Ser and Gly81Val; also called Anticalin D11vs; not shown: C-terminal His6-tag (plasmid pNGAL118) as for the other soluble lipocalin variants
fold increase of affinity against P3D11 [7]: ~3 fold
T½ [2]: 7.37 h
T1/2 [3]: 8.72 h
Kd [4]: 0.05 nM
koff [4]: 2.2e-05 s⁻¹
kon [4]: 460000 M⁻¹ s⁻¹
Kd [8]: 0.05 nM
koff [8]: 2.6e-05 s⁻¹
kon [8]: 450000 M⁻¹ s⁻¹

The next lines start with the values.

binding result [9]: binds
B3: D11vs-PAS200-Cy5.5 (designed binder)
chain: QDSTSDLIPAPPLSKVPLQQNFQDNQFHGKWYVVGRAGNTGLREDKDPGKMFATIYELKEDKSYNVTYVWSGQKKCMYSIVTFVPGSQPGEFTLGNIKSAPGRTSWLVRVVSTNYNQHAMVFFKSVTQNREGFAITLYGRTKELTSELKENFIRFSKSLGLPENHIVFPVPIDQCIDG
modifications: Sulfo-Cyanine5.5 coupled by maleimide chemistry to the engineered C-terminal Cys
notes: also called Cy5.5 labeled PASylated D11vs; Cy5.5-labeled D11vs-PAS200; not shown: C-terminal PAS200 polypeptide (200 Pro, Ala and Ser residues) with an engineered Cys at its end

Kd [10]: ≤ 5 nM
B4: SEQ ID NO 4 (designed binder)
chain: QDSTSDLIPAPPLSKVPLQQNFQDNQFHGKWYVVGRAGNTGLREDKDPGKMFATIYELKEDKSYNVTYVWSGQKKCMYSIVTFVPGSQPGEFTLGNIKSAPGRTSWLVRVVSTNYNQHALVFFKSVTQNREGFAITLYGRTKELTSELKENFIRFSKSLGLPENHIVFPVPIDQCIDG
